Laboratory results as given in patent US4885277A, “Anticoagulant therapy” (Oklahoma Medical Research Foundation, priority 1987, dated 1989).

System: endothelial cellular receptors for Factor IX (cultured bovine aortic endothelial cells)
Test: Competitive binding of [125I]-Factor IX to cultured bovine aortic endothelial cells
Conditions: cultured bovine aortic endothelial cells, 4-5 hours at 4° C.; mean, SEM less than 20%; read-out: Inhibitory Constant, inhibition of binding of [125I]-Factor IX
Description: The purified peptides were tested for their ability to block the binding of bovine Factor IX and IXa to cultured bovine aortic endothelial cells. Bovine Factor IX and IXa for these studies were prepared and radioiodinated (using Na^125 I and the solid state lactoperoxidase technique) using methods described by Stern, et al. (J. Biol. Chem. 260, pp. 6717-6722 [1985]). Bovine aortic endothelial cells were obtained from the aortae of newborn calves as described by Stern, et al. (Proc. Natl. Acad. Sci. U.S.A., 80, pp. 4119-4123 [1983]). These endothelial cells were grown to confluence (1.3×10^5 cells/cm^2) in culture dishes. Binding assays were carried out by incubating either ^125 I-Factor IX or ^125 I-Factor IXa with endothelial cell monolayers in the presence of varying concentrations of one of the peptides. The buffer used in these experiments was Minimal Essential Medium containing 0.5 mg/ml transferring, and the incubation time was 4-5 hours at 4° C. At the end of the incubation period, the cultures were washed to remove unbound material. Then, specifically bound [^125 I]-Factor IX or [^125 I]-Factor IXa was eluted during exposure to EDTA-containing buffer as described by Stern, et al. (Proc. Natl. Acad. Sci. U.S.A., 80, pp. 4119-4123 [1983].

B1: Factor IX: bovine Factor IX, Vitamin K-dependent plasma glycoprotein, used as competitor (protein, UniProt P00741 26-462, looked up)
Coagulation factor IX: AECTVFLDRENATKILHRPKRYNSGKLEEFVRGNLERECKEEKCSFEEAREVFENTEKTTEFWKQYVDGDQCESNPCLNGGMCKDDINSYECWCQAGFEGTNCELDATCSIKNGRCKQFCKRDTDNKVVCSCTDGYRLAEDQKSCEPAVPFPCGRVSVSHISKKLTRAETIFSNTNYENSSEAEIIWDNVTQSNQSFDEFSRVVGGEDAERGQFPWQVLLHGEIAAFCGGSIVNEKWVVTAAHCIKPGVKITVVAGEHNTEKPEPTEQKRNVIRAIPYHSYNASINKYSHDIALLELDEPLELNSYVTPICIADRDYTNIFLKFGYGYVSGWGKVFNRGRSASILQYLKVPLVDRATCLRSTKFSIYSHMFCAGYHEGGKDSCQGDSGGPHVTEVEGTSFLTGIISWGEECAMKGKYGIYTKVSRYVNWIKEKTKLT
For B1, the Ki was 3 nM.
